Test results: article PMC9451086

Target: Importin-α1 (UniProt P52292)
Assay: proximity ligation assay
Settings: PLC3 cells electroporated with HEV-p6 RNA, 18 h.p.e; 12 fields of cells, mean ± S.D.; parent: est. 5.3; read off a plot

Substance | response [spot/cell]
HEV ORF2 capsid protein, wild type (genotype 3 Kernow C-1 p6 strain) R28A; R29A; R30A; R32A; R33A | 1.1
HEV ORF2 capsid protein, wild type (genotype 3 Kernow C-1 p6 strain) P25R; S26R; G27R | 4.8
